Substrate: CC(=O)C(=O)O
Assay: cells, lysate or membranes
Type: biochemical, Lactiplantibacillus plantarum
Details: NADH, acetate buffer pH 5.6, 25 °C, no fructose 1,6-diphosphate, Table 2 prints 1,50

B1: L. plantarum LDH (LpLDH, plLDH) (Lactiplantibacillus plantarum WCFS1; D94G) (protein)
chain: MSSMPNHQKVVLVGDGAVGSSYAFAMAQQGIAEEFVIVDVVKDRTKGDALDLEDAQAFTAPKKIYSGEYSDCKDADLVVITAGAPQKPGESRLGLVNKNLNILSSIVKPVVDSGFDGIFLVAANPVDILTYATWKFSGFPKDRVIGSGTSLDSSRLRVALGKQFNVDPRSVDAYIMGEHGDSEFAAYSTATIGTRPVRDVAKEQGVSDEDLAKLEDGVRNKAYDIINLKGATFYGIGTALMRISKAILRDENAVLPVGAYMDGQYGLNDIYIGTPAVIGGTGLKQIIESPLSADELKKMQDSAATLKKVLNDGLAELENK
notes: full length, TTG start changed to ATG, untagged, expressed in S. cerevisiae GRF18U; crude cell extract; homotetramer
Km: 1010 µM

From paper PMC1373645, “Lactate production yield from engineered yeasts is dependent from the host background, the lactate dehydrogenase source and the lactate export” (Microbial Cell Factories, 2006)
